Substitutions are numbered along the chain they refer to.
T1: recombinant cynomolgus monkey TL1A protein (cynomolgus monkey, UniProt G7PRK8 72-251)
T1 sequence: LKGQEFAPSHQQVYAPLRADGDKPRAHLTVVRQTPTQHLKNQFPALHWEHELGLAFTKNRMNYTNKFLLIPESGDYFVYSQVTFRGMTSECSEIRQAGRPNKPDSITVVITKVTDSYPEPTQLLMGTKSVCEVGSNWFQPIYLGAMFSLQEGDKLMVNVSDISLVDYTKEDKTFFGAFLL

T2: recombinant human TL1A protein (human, UniProt O95150 72-251)
T2 sequence (looked up): T1 sequence with L39F, V78I

T3: TL1A in human blood (human, UniProt O95150 72-251, limits assumed)
T3 sequence (looked up): T1 sequence with L39F, V78I

B1: anti-TL1A antibody A219 (antibody, V domains shown)
VH: QVQLVQSGAEVKKPGASVKVSCKASGFDIQDTYMHWVKQRPGQGLEWMGRIDPASGHTKYDPKFQVRVTITRDTSTSTVYLELSSLRSEDTAVYYCARSGGLPDVWGQGTTVTVSS
VL: EIVLTQSPGTLSLSPGERATLSCRASSSVSYMYWYQQKPGQAPRPLIYATSNLASGIPDRFSGSGSGTDFTLTISRLEPEDFAVYYCQQWEGNPRTFGGGTKLEIK
notes: Humanized monoclonal IgG1 with a kappa light chain, designed to abolish effector functions
B2: A147 (antibody, V domains shown)
VH: B1 VH with D52E, T58I, V66G, I70M, L81M, V105W
VL: B1 VL
B3: A213 (antibody, V domains shown)
VH: B1 VH with K38R, R72T, L81M
VL: B1 VL
B4: A212 (antibody, V domains shown)
VH: B1 VH with K38R, M48I, V68A, R72T, V79A
VL: B1 VL
B5: A219 (antibody, V domains shown)
VH: B1 VH
VL: B1 VL
B6: A220 (antibody, V domains shown)
VH: B1 VH with I70M, V79A
VL: B1 VL with L46W
B7: A217 (antibody, V domains shown)
VH: B1 VH with L81M
VL: B1 VL

Legend:
[1] = target: T1, recombinant cynomolgus monkey TL1A …; test: cell-based or functional assay
[2] = target: T2, recombinant human TL1A protein; test: cell-based or functional assay
[3] = target: T1, recombinant cynomolgus monkey TL1A …; test: ELISA on recombinant TL1A protein, antibody titrated, A450 nm read
Description: ELISA for each protein was performed at least three times. The data from a representative experiment are shown and are mean±SD. Abbreviations: A=absorbance, Ab=antibody, Cyno=cynomolgus, nm-nanometer, nM-nanomolar. […] Samples were assayed in triplicate, on two separate occasions. Data presented are the mean TL1A concentrations of three animals per group+SD. Samples collected from animals administered isotype control antibody are shown in circles, samples collected from animals administered anti-TL1A are shown in the triangles and square.

TL1A in human blood = target: T3, TL1A in human blood; test: cell-based or functional assay

Row | Binder | IC50 of inhibition of TL1A-induced caspase activation in TF-1 cells [1] [nM] | IC50 of inhibition of the IFN-γ response in monkey whole blood stimulated with immune complex, IL-12 and IL-18 [1] [nM] | IC50 of inhibition of TL1A-induced caspase activation in TF-1 cells [2] [nM] | EC50 (read off the curve) [3] [nM] | % Inhibition at 1 nM Ig; inhibition of interferon gamma release in human blood (TL1A in human blood) [%] | % Inhibition at 10 nM Ig; inhibition of interferon gamma release in human blood (TL1A in human blood) [%]
1 | B1 | 0.59 | 1.54 | 0.27 | ~0.4 | – | –
2 | B2 | – | – | – | – | 51.3 | 72.4
3 | B3 | – | – | – | – | 48.6 | 69.8
4 | B4 | – | – | – | – | 46.8 | 71.2
5 | B5 | – | – | – | – | 59.8 | 75.2
6 | B6 | – | – | – | – | 36.9 | 63.2
7 | B7 | – | – | – | – | 46 | 72.2
